How the values were obtained:
complement C3b [1] = molecular target: T1, complement C3b (UniProt P01024 749-1663; P01024 749-1663); assay: SPR
complement C3b [2] = molecular target: T1, complement C3b; assay: SPR; remark: listed apart in the source

T1 sequence (P01024 23-667, chain 1 of 2): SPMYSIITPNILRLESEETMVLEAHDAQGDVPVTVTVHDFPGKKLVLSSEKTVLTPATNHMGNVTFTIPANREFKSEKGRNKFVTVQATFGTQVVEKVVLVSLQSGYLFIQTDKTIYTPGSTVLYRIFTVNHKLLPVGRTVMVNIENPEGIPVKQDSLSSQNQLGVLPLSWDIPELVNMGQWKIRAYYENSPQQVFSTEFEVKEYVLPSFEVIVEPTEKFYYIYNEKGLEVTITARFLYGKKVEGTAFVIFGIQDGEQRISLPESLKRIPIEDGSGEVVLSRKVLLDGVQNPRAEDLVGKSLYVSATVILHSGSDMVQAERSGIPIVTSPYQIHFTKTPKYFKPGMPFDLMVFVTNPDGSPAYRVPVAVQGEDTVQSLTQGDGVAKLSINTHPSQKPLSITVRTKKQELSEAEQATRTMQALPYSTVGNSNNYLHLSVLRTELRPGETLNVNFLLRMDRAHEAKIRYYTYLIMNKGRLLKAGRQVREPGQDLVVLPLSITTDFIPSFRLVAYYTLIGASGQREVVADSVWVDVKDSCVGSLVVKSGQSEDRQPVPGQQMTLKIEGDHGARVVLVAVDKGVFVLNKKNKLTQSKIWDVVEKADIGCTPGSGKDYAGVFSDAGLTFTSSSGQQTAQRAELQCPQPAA
T1 sequence (P01024 749-1663, chain 2 of 2): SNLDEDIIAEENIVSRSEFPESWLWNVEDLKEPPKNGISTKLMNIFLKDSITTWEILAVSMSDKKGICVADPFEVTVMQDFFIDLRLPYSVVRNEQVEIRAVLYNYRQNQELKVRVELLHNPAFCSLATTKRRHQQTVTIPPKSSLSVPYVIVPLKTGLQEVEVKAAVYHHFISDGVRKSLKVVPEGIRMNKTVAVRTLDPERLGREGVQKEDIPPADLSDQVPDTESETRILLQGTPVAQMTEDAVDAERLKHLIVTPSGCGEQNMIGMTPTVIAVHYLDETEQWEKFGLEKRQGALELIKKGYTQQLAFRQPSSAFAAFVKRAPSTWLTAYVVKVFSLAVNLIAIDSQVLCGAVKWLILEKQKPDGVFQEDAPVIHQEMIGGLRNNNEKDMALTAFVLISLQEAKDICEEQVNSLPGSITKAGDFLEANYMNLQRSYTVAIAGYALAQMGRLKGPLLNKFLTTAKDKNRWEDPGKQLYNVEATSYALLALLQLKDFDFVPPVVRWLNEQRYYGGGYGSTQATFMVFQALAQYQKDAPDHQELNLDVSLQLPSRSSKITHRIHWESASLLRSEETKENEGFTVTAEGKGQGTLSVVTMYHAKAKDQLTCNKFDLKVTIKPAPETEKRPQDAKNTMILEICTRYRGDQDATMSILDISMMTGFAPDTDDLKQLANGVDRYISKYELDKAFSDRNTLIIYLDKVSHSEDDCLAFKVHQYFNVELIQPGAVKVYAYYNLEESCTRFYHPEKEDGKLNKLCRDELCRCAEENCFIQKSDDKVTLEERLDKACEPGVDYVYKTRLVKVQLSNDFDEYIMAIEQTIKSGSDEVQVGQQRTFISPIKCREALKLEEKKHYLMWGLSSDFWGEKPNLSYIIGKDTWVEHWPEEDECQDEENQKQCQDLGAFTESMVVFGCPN

Kd (complement C3b [1]): 11.3 nM | koff (complement C3b [2]): 0.0233 s⁻¹
B1: serum-derived human factor H (sd-FH) (natural protein)
chain: EDCNELPPRRNTEILTGSWSDQTYPEGTQAIYKCRPGYRSLGNVIMVCRKGEWVALNPLRKCQKRPCGHPGDTPFGTFTLTGGNVFEYGVKAVYTCNEGYQLLGEINYRECDTDGWTNDIPICEVVKCLPVTAPENGKIVSSAMEPDREYHFGQAVRFVCNSGYKIEGDEEMHCSDDGFWSKEKPKCVEISCKSPDVINGSPISQKIIYKENERFQYKCNMGYEYSERGDAVCTESGWRPLPSCEEKSCDNPYIPNGDYSPLRIKHRTGDEITYQCRNGFYPATRGNTAKCTSTGWIPAPRCTLKPCDYPDIKHGGLYHENMRRPYFPVAVGKYYSYYCDEHFETPSGSYWDHIHCTQDGWSPAVPCLRKCYFPYLENGYNQNYGRKFVQGKSIDVACHPGYALPKAQTTVTCMENGWSPTPRCIRVKTCSKSSIDIENGFISESQYTYALKEKAKYQCKLGYVTADGETSGSITCGKDGWSAQPTCIKSCDIPVFMNARTKNDFTWFKLNDTLDYECHDGYESNTGSTTGSIVCGYNGWSDLPICYERECELPKIDVHLVPDRKKDQYKVGEVLKFSCKPGFTIVGPNSVQCYHFGLSPDLPICKEQVQSCGPPPELLNGNVKEKTKEEYGHSEVVEYYCNPRFLMKGPNKIQCVDGEWTTLPVCIVEESTCGDIPELEHGWAQLSSPPYYYGDSVEFNCSESFTMIGHRSITCIHGVWTQLPQCVAIDKLKKCKSSNLIILEEHLKNKKEFDHNSNIRYRCRGKEGWIHTVCINGRWDPEVNCSMAQIQLCPPPPQIPNSHNMTTTLNYRDGEKVSVLCQENYLIQEGEEITCKDGRWQSIPLCVEKIPCSQPPQIEHGTINSSRSSQESYAHGTKLSYTCEGGFRISEENETTCYMGKWSSPPQCEGLPCKSPPEISHGVVAHMSDSYQYGEEVTYKCFEGFGIDGPAIAKCLGEKWSHPPSCIKTDCLSLPSFENAIPMGEKKDVYKAGEQVTYTCATYYKMDGASNVTCINSRWTGRPTCRDTSCVNPPTVQNAYIVSRQMSKYPSGERVRYQCRSPYEMFGDEEVMCLNGNWTEPPQCKDSTGKCGPPPPIDNGDITSFPLSVYAPASSVEYQCQNLYQLEGNKRITCRNGQWSEPPKCLHPCVISREIMENYNIALRWTAKQKLYSRTGESVEFVCKRGYRLSSRSHTLRTTCWDGKLEYPTCAKR
modifications: native N-linked glycans, diantennary and a small number of triantennary sialylated glycans
